Measurements taken from article PMC13379313, “Clocked stepping of an artificial protein walker along a DNA track”.

B1: metJ single site (NR139 top/bottom) (dsDNA)
DNA 1: CCACGCCCTAAGGTATGCTAGTTTGAGACGTCTCAAAACAGGA
DNA 2: TCCTGTTTTGAGACGTCTCAAACTAGCAT
B2: trpR single site (NR206/NR207) (dsDNA)
DNA 1: CCACGCCCTAAGGTGAGCATAGTGGTACTCGCTAGCGAGTACCTCTGACTTC
DNA 2: GAAGTCAGAGGTACTCGCTAGCGAGTACCACTATGCTC

Assays:
MetJ = target: T1, MetJ (UniProt P0A8U6 2-105, Q45K); experiment: SPR; SAM; SPR: 1 mM SAM, 0.4 mM CoCl2 or 0.5 mM Trp, 100 ul/min, streptavidin CM5 chip; running buffer, pH and temperature not in material (DNA annealed in 25 mM HEPES pH 7.4, 200 mM KCl, 5 mM MgCl2); conditions: protein: recombinant; tags: 8xHis, TEV-cleaved; chain copies: 2; label: 3' biotin on anchor strand S4 (SPR); 5' overhang 14 nt of strand 1, annealed to biotin anchor S4 in SPR
T1 sequence: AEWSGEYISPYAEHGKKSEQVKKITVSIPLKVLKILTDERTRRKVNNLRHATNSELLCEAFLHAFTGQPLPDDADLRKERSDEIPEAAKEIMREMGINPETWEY

TrpR = TrpR (UniProt P0A881 2-108); experiment: SPR; Trp; SPR: 1 mM SAM, 0.4 mM CoCl2 or 0.5 mM Trp, 100 ul/min, streptavidin CM5 chip; running buffer, pH and temperature not in material (DNA annealed in 25 mM HEPES pH)

Row | Binder | Kd (MetJ) | Kd (TrpR)
1 | B1 | 4 ± 0.4 nM | –
2 | B2 | – | 48 nM
